Results taken from patent US20120219562A1 (AbbVie / Abbott, published 2012).

How the values were obtained:
[1] = biological target: T1, human interleukin 12 (p70 heterodimer of p35 and p40) (human, UniProt P29459 23-219; P29460 23-328); assay: SPR (BIAcore), off-rate
T1 construct: Recombinant human IL-12; also called hIL-12; IL-12
T1 sequence (looked up) 1: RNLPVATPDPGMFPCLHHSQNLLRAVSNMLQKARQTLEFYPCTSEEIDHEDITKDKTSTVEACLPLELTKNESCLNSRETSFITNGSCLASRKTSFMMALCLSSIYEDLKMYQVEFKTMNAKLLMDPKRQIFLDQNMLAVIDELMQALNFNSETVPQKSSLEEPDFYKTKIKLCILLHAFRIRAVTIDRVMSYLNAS
T1 sequence (looked up) 2: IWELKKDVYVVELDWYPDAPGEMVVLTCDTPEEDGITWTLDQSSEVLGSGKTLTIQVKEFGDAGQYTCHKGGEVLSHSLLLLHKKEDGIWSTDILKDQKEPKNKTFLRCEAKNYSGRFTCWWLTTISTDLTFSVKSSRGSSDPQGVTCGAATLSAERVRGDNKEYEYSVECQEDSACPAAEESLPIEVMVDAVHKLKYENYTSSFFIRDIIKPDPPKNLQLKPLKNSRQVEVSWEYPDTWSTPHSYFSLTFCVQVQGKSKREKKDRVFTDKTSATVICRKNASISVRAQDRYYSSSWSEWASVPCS

[2] = biological target: T2, human interleukin 12 (human, UniProt P29459 23-219; P29460 23-328); assay: SPR (BIAcore)
T2 construct: heterodimer of p35 and p40 linked by a disulfide bridge; also called hIL-12; IL-12
T2 sequence (looked up) 1: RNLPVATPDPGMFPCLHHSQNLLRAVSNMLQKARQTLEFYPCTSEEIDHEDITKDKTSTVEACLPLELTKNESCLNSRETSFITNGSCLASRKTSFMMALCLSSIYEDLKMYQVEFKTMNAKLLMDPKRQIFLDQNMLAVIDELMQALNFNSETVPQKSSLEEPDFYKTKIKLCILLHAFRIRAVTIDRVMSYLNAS
T2 sequence (looked up) 2: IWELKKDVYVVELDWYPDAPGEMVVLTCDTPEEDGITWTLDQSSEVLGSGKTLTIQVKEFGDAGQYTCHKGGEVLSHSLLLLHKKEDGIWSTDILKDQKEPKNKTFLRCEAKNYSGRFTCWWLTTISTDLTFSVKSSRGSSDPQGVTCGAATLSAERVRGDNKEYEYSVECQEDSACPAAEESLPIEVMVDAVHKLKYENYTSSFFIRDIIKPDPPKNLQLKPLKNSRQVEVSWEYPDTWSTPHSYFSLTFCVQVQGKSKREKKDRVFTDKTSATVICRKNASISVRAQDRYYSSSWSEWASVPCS

B1: SEQ ID NO: 477 (Y61, T at L30) (antibody, V domains shown)
VH: QVQLVQSGGGVVQPGRSLRLSCAASGFTFSSYGMHWVRQAPGKGLEWVAFIRYDGSNKYYADSVKGRFTISRDNSKNTLYLQMKSLRAEDTAVYYCKTHGSHDNWGQGTMVTVSS
VL: SYVLTQPPSVSGTPGQRVTISCSGGRSNIGTNTVKWYQQLPGTAPKLLIYGNDQRPSGVPDRFSGSKSGTSASLAITGVQAEDEADYYCQSYDRGTHPALLFGTGTKVTVLG
- koff [1]: 0.000226 s⁻¹

B2: SEQ ID NO: 478 (Y61, P at L30) (antibody, V domains shown)
VH: QVQLVQSGGGVVQPGRSLRLSCAASGFTFSSYGMHWVRQAPGKGLEWVAFIRYDGSNKYYADSVKGRFTISRDNSKNTLYLQMKSLRAEDTAVYYCKTHGSHDNWGQGTMVTVSS
VL: SYVLTQPPSVSGTPGQRVTISCSGGRSNIGPNTVKWYQQLPGTAPKLLIYGNDQRPSGVPDRFSGSKSGTSASLAITGVQAEDEADYYCQSYDRGTHPALLFGTGTKVTVLG
- koff [1]: 0.00025 s⁻¹

B3: SEQ ID NO: 479 (Y61, D at L31) (antibody, V domains shown)
VH: QVQLVQSGGGVVQPGRSLRLSCAASGFTFSSYGMHWVRQAPGKGLEWVAFIRYDGSNKYYADSVKGRFTISRDNSKNTLYLQMKSLRAEDTAVYYCKTHGSHDNWGQGTMVTVSS
VL: SYVLTQPPSVSGTPGQRVTISCSGGRSNIGSDTVKWYQQLPGTAPKLLIYGNDQRPSGVPDRFSGSKSGTSASLAITGVQAEDEADYYCQSYDRGTHPALLFGTGTKVTVLG
- koff [1]: 0.00058 s⁻¹

B4: C10 (antibody, V domains shown)
VH: QVQLVQSGGGVVQPGRSLRLSCAASGFTFSSYGMHWVRQAPGKGLEWVAFIRYDGSNKYYADSVKGRFTISRDNSKNTLYLQMKSLRAEDTAVYYCKTHGSHDNWGQGTMVTVSS
VL: SYVLTQPPSVSGTPGQRVTISCSGGRSNIGSNTVKWYQQLPGTAPKLLIYGNDQRPSGVPDRFSGSKSGTSASLAITGVQAEDEADYYCQSYDRGNSPIPTFGTGTKVTVLG
- koff [2]: 0.0031 s⁻¹

B5: C4 (antibody, V domains shown)
VH: QVQLVQSGGGVVQPGRSLRLSCAASGFTFSSYGMHWVRQAPGKGLEWVAFIRYDGSNKYYADSVKGRFTISRDNSKNTLYLQMKSLRAEDTAVYYCKTHGSHDNWGQGTMVTVSS
VL: SYVLTQPPSVSGTPGQRVTISCSGGRSNIGSNTVKWYQQLPGTAPKLLIYGNDQRPSGVPDRFSGSKSGTSASLAITGVQAEDEADYYCQSYDRGTPNNSFFGTGTKVTVL
- koff [2]: 0.00323 s⁻¹

B6: B6 (antibody, V domains shown)
VH: QVQLVQSGGGVVQPGRSLRLSCAASGFTFSSYGMHWVRQAPGKGLEWVAFIRYDGSNKYYADSVKGRFTISRDNSKNTLYLQMKSLRAEDTAVYYCKTHGSHDNWGQGTMVTVSS
VL: SYVLTQPPSVSGTPGQRVTISCSGGRSNIGSNTVKWYQQLPGTAPKLLIYGNDQRPSGVPDRFSGSKSGTSASLAITGVQAEDEADYYCQSYDSGSLRRILFGTGTKVTVL
- koff [2]: 0.00758 s⁻¹

B7: 43-E3 (antibody, V domains shown)
VH: QVQLVQSGGGVVQPGRSLRLSCAASGFTFSSYGMHWVRQAPGKGLEWVAFIRYDGSNKYYADSVKGRFTISRDNSKNTLYLQMKSLRAEDTAVYYCKTHGSHDNWGQGTMVTVSS
VL: SYVLTQPPSVSGTPGQRVTISCSGGRSNIGSNTVKWYQQLPGTAPKLLIYGNDQRPSGVPDRFSGSKSGTSASLAITGVQAEDEADYYCQSYDRGSHPAAEFGTGTKVTVLG
- koff [2]: 0.0008 s⁻¹

B8: 43-E9 (antibody, V domains shown)
VH: QVQLVQSGGGVVQPGRSLRLSCAASGFTFSSYGMHWVRQAPGKGLEWVAFIRYDGSNKYYADSVKGRFTISRDNSKNTLYLQMKSLRAEDTAVYYCKTHGSHDNWGQGTMVTVSS
VL: SYVLTQPPSVSGTPGQRVTISCSGGRSNIGSNTVKWYQQLPGTAPKLLIYGNDQRPSGVPDRFSGSKSGTSASLAITGVQAEDEADYYCQSYDRGTIPSIEFGTGTKVTVLG
- koff [2]: 0.0008 s⁻¹

B9: 136-9 (antibody, V domains shown)
VH: QVQLVQSGGGVVQPGRSLRLSCAASGFTFSSYGMHWVRQAPGKGLEWVAFIRYDGSNKYYADSVKGRFTISRDNSKNTLYLQMKSLRAEDTAVYYCTTHGSHDDWGQGTMVTVSS
VL: SYVLTQPPSVSGTPGQRVTISCSGGRSNIGSNTVKWYQQLPGTAPKLLIYGNDQRPSGVPDRFSGSKSGTSASLAITGVQAEDEADYYCQTYDISESGSRVFGTGTKVTVL
- koff [2]: 0.0032 s⁻¹
